Experimental data as given in patent US20090155873A1, “BIOFUEL PRODUCTION” (BIO ARCHITECTURE LAB, INC., priority 2007, published 2009).

Assays:
Format in all cases: biochemical
[1] = Assay for D-mannuronate hydrogenase (NADPH dependent hydrogenation); settings: cell lysate, absorbance at 340 nm for 30 min, FIG. 7B
Experimental: (§1) To identify D-mannuronate hydrogenase, a NADPH dependent D-mannuronate hydrogenation assay was performed. 20 μl of prepared cell lysate containing each ADH was added to 160 μl of D-mannuronate solution prepared in the above section. 20 μl of 2.5 mg/ml of NADPH solution (20 mM Tris-HCl, pH 8.0) was added to initiate the hydrogenation reaction. The consumption of NADPH was monitored an absorbance at 340 nm for 30 min using the kinetic mode of ThermoMAX 96 well plate reader (Molecular Devises). E. coli cell lysate containing alcohol dehydrogenase (ADH) 10 lacking a portion of N-terminal domain was used in a control reaction mixture.

[2] = Assay for DEHU hydrogenase (NADPH dependent DEHU hydrogenation); settings: cell lysate, absorbance at 340 nm for 30 min, FIG. 7A
Experimental: as §1, with “identify DEHU” for “identify D-mannuronate”, “dependent DEHU” for “dependent D-mannuronate”, “of 20-fold deluted DEHU” for “of D-mannuronate”, “hydrogenation reaction, as a preliminary study using cell lysate of A. tumefaciens C58 have shown that DEHU hydrogenation requires NADPH as a co-factor.” for “hydrogenation reaction.”

[3] = In vitro pyruvate formation from alginate or mannuronate; settings: purified enzyme ~5 ug, over night, pyruvate assay kit, FIG. 6B and 6C
[4] = NADPH Production Assay (oxidation of 4-octanol); settings: NADP+, 30° C., FIG. 30B
Experimental: Various secondary alcohol dehydrogenases (2ADHs) were isolated from Pseudomonas putida KT2440, Pseudomonas fluorescens Pf-5, and Klebsiella pneumoniae MGH 78578. All vectors were transformed in BL21(DE3) competent cells and expression of the genes encoding the proteins of interest was induced with IPTG (via the T7 promoter). The cells were lysed, proteins were extracted and then purified on Ni-NTA columns. Final protein concentration in the Ni-NTA eluate was diluted to 0.15 mg/mL prior to assays.
[…] consumption and production assays were performed using a THERMOmax microplate reader in the kinetic mode, monitoring the NADPH absorbance peak at 340 nm until the reaction reached equilibrium. […] These reaction conditions are found in Table 4 below.

Row | Molecule | mannuronate hydrogenase activity monitored by NADPH consumption [1] | oxidation of 4-octanol measured by NADPH production [4] | also measured
1 | ADH4: alcohol dehydrogenase ADH4 Atu5240 isolated from Agrobacterium tumefaciens C58, SEQ ID NO:76 (protein, Agrobacterium tumefaciens C58) MTGANQPWEVQEVPVPKAEPGLVLVKIHASGMCYTDVWATQGAGGDIYPQTPGHEVVGEIIEVGAGVHTRKVGDRVGTTWVQSSCGRCSYCRQNRPLTGQTAMNCDSPRTTGFATQGGHAEYIAISAEGTVLLPDGLDYTDAAPMMCAGYTTWSGLRDAEPKPGDRIAVLGIGGLGHVAVQFSKALGFETIAITHSPDKHKLATDLGADIVVADGKELLEAGGADVLLVTTNDFDTAEKAMAGVRPDGRIVLCALDFSKPFSIPSDGKPFHMMRQRVVGSTHGGQHYLAEILDLAAKGKVKPIVETFALEQATEAYERLSTGKMRFRGVFLPHGA | significant mannuronate hydrogenase activity | – | –
2 | ADH1: alcohol dehydrogenase ADH1 Atu1557 isolated from Agrobacterium tumefaciens C58, SEQ ID NO:70 (protein, Agrobacterium tumefaciens C58) MFTTSAYACDDGSSPMKLATIRRRDPGPRDVEIEIEFCGVCHSDIHTARSEWPGSLYPCVPGHEIVGRVGRVGAQVTRFKTGDRVGVGCIVDSCRECASCAEGLEQYCENGMTGTYNSPDKAMGGGAHTLGGYSAHVVVDDRYVLNIPEGLDPAAAAPLLCAGITTYSPLRHWNAGPGKRVGVVGLGGLGHMAVKLANAMGATVVMITTSPGKAEDAKKLGAHEVIISRDAEQMKKATSSLDLIIDAVAADHDIDAYLALLKRDGALVQVGAPEKPLSVMAFSLIPGRKTFAGSMIGGIPETQEMLDFCAEKGIAGEIEMIDIDQINDAYERMIKSDVRYRFVIDMKSLPRQKAA | – | – | DEHU hydrogenase activity monitored by NADPH consumption [2]: significant DEHU hydrogenase activity
3 | ADH9: alcohol dehydrogenase ADH9 Atu4087 isolated from Agrobacterium tumefaciens C58, SEQ ID NO:86 (protein, Agrobacterium tumefaciens C58) MKAIVAHGAKDVRIEDRPEEKPGPGEVRLRLARGGICGSDLHYYNHGGFGAVRLREPMVLGHEVSAVIEELGEGVEGLKIGGLVAVSPSRPCRTCRFCQEGLHNQCLNMRFYGSAMPFPHIQGAFREILVADALQCVPADGLSAGEAAMAEPLAVTLHATRRAGDLLGKRVLVTGCGPIGILSILAARRAGAAEIVATDLSDFTLGKAREAGADRVINSKDEPDALAAYGANKGTFDILYECSGAAVALAGGITALRPRGIIVQLGLGGDMSLPMMAITAKELDLRGSFRFHEEFATGVELMRKGLIDVKPFITQTVDLADAISAFEFASDRSRAMKVQIAFS | significant mannuronate hydrogenase activity | – | –
4 | Atu3027 (ADH11): alcohol dehydrogenase ADH11 Atu3027 isolated from Agrobacterium tumefaciens C58, SEQ ID NO:90 (protein, Agrobacterium tumefaciens C58) MRSELPEGFFGPREWARLNAVADIIPGFPHTDFDTANGAEALAEADILLAAWGTPSLTRERLSRAPRLKMLAYAASSVRMVAPAEFWETSDILVTTAASAMAVPVAEFTYAAIIMCGKDVFRLRDEHRTERGTGVFGSRRGRSLPYLGNHARKVGIVGASRIGRLVMEMLARGTFEIAVYDPFLSAEEAASLGAKKAELDELLAWSDVVSLHAPILPETHHMIGARELALMADHAIFINTARGWLVDHDALLTEAISGRLRILIDTPEPEPLPTDSPFYDLPNVVLTPHIAGALGNELRALSDLAITEIERFVAGLAPLHPVHKQDMERMA | – | – | catalysis of DEHU hydrogenase and mannuronate hydrogenase reactions in pyruvate formation from alginate [3]: capable of catalyzing both DEHU hydrogenase and mannuronate hydrogenase reactions
5 | 2ADH-5: secondary alcohol dehydrogenase isolated from Pseudomonas putida KT2440, SEQ ID NO:118 (protein, Pseudomonas putida KT2440) MSKQLTLEGKVALVQGGSRGIGAAIVRRLAREGAQVAFTYVSSAGPAEELAREITENGGKALALRADSADAAAVQLAVDDTEKALGRLDILVNNAGVLAVAPVTEFDLADFDHMLAVNVRSVFVASQAAARYMGQGGRIINIGSTNAERMPFAGGAPYAMSKSALVGLTRGMARDLGPQGITVNNVQPGPVDTDMNPASGEFAESLIPLMAIGRYGEPEEIASFVAYLAGPEAGYITGASLTVDGGFAA | – | catalyze the oxidation of 4-octanol in the presence of NADP+ | –
6 | ADH2: alcohol dehydrogenase ADH2 Atu2022 isolated from Agrobacterium tumefaciens C58, SEQ ID NO:72 (protein, Agrobacterium tumefaciens C58) MAIARGYAATDASKPLTPFTFERREPNDDDVVIDIKYAGICHSDIHTVRNEWHNAVYPIVPGHEIAGVVRAVGSKVTRFKVGDHVGVGCFVDSCVGCATRDVDNEQYMPGLVQTYNSVERDGKSATQGGYSDHIVVREDYVLSIPDNLPLDASAPLLCAGITLYSPLQHWNAGPGKKVAIVGMGGLGHMGVKIGSAMGADITVLSQTLSKKEDGLKLGAKEYYATSDASTFEKLAGTFDLILCTVSAEIDWNAYLNLLKVNGTMVLLGVPEHAIPVHAFSVIPARRSLAGSMIGSIKETQEMLDFCGKHDIVSEIETIGIKDVNEAYERVLKSDVRYRFVIDMASLDA | – | – | DEHU hydrogenase activity monitored by NADPH consumption [2]: significant DEHU hydrogenase activity
7 | Atu3026 (ADH12): alcohol dehydrogenase ADH12 Atu3026 isolated from Agrobacterium tumefaciens C58, SEQ ID NO:92 (protein, Agrobacterium tumefaciens C58) MQRFTNRTIVVAGAGRDIGRACAIRFAQEGANVVLTYNGAAEGAATAVAEIEKLGRSALAIKADLTNAAEVEAAISAAADKFGEIHGLVHVAGGLIARKTIAEMDEAFWHQVLDVNLTSLFLTAKTALPKMAKGGAIVTFSSQAGRDGGGPGALAYATSKGAVMTFTRGLAKEVGPKIRVNAVCPGMISTTFHDTFTKPEVRERVAGATSLKREGSSEDVAGLVAFLASDDAAYVTGACYDINGGVLFS | – | – | catalysis of DEHU hydrogenase and mannuronate hydrogenase reactions in pyruvate formation from alginate [3]: capable of catalyzing both DEHU hydrogenase and mannuronate hydrogenase reactions
8 | ADH3: alcohol dehydrogenase ADH3 Atu0626 isolated from Agrobacterium tumefaciens C58, SEQ ID NO:74 (protein, Agrobacterium tumefaciens C58) MTKTMKAAVVRAFGKPLTIEEVAIPDPGPGEILINYKATGVCHTDLHAATGDWPVKPNPPFIPGHEGAGYVAKIGAGVTGIKEGDRAGTPWLYTACGCCIPCRTGWETLCPSQKNSGYSVNGSFAEYGLADPKFVGRLPDNLDFGPAAPVLCAGVTVYKGLKETEVRPGEWVVISGIGGLGHMAVQYAKAMGMHVVAADIFDDKLALAKKLGADVVVNGRAPDAVEQVQKATGGVHGALVTAVSPKAMEQAYGFLRSKGTMALVGLPPGFISIPVFDTVLKRITVRGSIVGTRQDLEEALTFAGEGKVAAHFSWDKLENINDIFHRMEEGKIDGRIVVDLAA | significant mannuronate hydrogenase activity | – | –
9 | 2ADH-8: secondary alcohol dehydrogenase isolated from Pseudomonas putida KT2440, SEQ ID NO:124 (protein, Pseudomonas putida KT2440) MSLQGKVALVTGASRGIGQAIALELGRQGATVIGTATSASGAERIAATLKEHGITGTGMELNVTSAESVEAVLAAIGEQFGAPAILVNNAGITRDNLMLRMKDDEWFDVIDTNLNSLYRLSKGVLRGMTKARWGRIISIGSVVGAMGNAGQANYAAAKAGLEGFSRALAREVGSRGITVNSVTPGFIDTDMTRELPEAQREALQTQIPLGRLGQADEIAKVVSFLASDGAAYVTGATVPVNGGMYM | – | catalyze the oxidation of 4-octanol in the presence of NADP+ | –
10 | 2ADH-10: secondary alcohol dehydrogenase isolated from Pseudomonas putida KT2440, SEQ ID NO:128 (protein, Pseudomonas putida KT2440) MSKTHLFDLDGKIAFVSGASRGIGEAIAHLLAQQGAHVIVSSRKLDGCQQVADAIIAAGGKATAVACHIGELEQIQQVFAGIREQFGRLDVLVNNAATNPQFCNVLDTDPGAFQKTVDVNIRGYFFMSVEAGKLMRENGGGSIINVASINGVSPGLFQGIYSVTKAAVINMTKVFAKECAPFGIRCNALLPGLTDTKFASALVKNEAILNAALQQIPLKRVADPKEMAGAVLYLASDASSYTTGTTLNVDGGFLS | – | catalyze the oxidation of 4-octanol in the presence of NADP+ | –
